# Earlier results, collected in paper PMC10054347.
# Key:
# [1] = biological target: Integrin alpha5 beta1 ectodomain (Homo sapiens (Human)) (UniProt P08648+P05556); experiment: SPR; conditions: 2'-F pyrimidines; PBS 10 mM, 150 mM NaCl, 1 mM MgCl2, 0.005% P20, 25 C
# [2] = biological target: T1, NELF-E (Drosophila) (Drosophila melanogaster (Fruit fly)) (UniProt P92204); conditions: HiTS-RAP; 10 mM HEPES pH 7.5, 100 mM NaCl, 25 mM KCl, 5 mM MgCl2, 0.02% Tween-20, RT
# T1 sequence: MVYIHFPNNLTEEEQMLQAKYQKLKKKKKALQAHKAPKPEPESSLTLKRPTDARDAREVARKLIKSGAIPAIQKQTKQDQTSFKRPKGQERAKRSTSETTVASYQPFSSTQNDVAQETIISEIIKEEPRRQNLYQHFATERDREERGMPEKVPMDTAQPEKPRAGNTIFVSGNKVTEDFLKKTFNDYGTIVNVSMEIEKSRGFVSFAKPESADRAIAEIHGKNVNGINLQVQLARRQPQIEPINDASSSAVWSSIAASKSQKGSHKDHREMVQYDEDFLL
# [3] = biological target: Lactoferrin (bovine milk) (Bos taurus (Bovine)) (UniProt P24627); experiment: SPR
# [4] = biological target: Double homeobox protein 4 (human), full length (Homo sapiens (Human)) (UniProt Q9UBX2); experiment: FP; conditions: hairpin with CCC bulge
# [5] = biological target: TGF-beta1 (mature) (Homo sapiens (Human)) (UniProt P01137); experiment: SPR; conditions: 2'-F pyrimidines; 10 mM HEPES-KOH pH 7.5, 100 mM KCl; protein amine-coupled on CM5, BSA reference
# [6] = biological target: CD63 large extracellular loop (Homo sapiens (Human)) (UniProt P08962); experiment: ELONA; conditions: binding buffer, 37 C, 1 h; protein adsorbed on plate
# [7] = biological target: T2, FGFR3b ectodomain, human (Homo sapiens (Human)) (UniProt P22607); experiment: flow; conditions: 2'-F pyrimidines; 3'-inverted dT (not in strands); 5'-thiol; protein on protein G beads; DPBS / FACS buffer, 1 h, 37 C; apparent Kd
# T2 sequence: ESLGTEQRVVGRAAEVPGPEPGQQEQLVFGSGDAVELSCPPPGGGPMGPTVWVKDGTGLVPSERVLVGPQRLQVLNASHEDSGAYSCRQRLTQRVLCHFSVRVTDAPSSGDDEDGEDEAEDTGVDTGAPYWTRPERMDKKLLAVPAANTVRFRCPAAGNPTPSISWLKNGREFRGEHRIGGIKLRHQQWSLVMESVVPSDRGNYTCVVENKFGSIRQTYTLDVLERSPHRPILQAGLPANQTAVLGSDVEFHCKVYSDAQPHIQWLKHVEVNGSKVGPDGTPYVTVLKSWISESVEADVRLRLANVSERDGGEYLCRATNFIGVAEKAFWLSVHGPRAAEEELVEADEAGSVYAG
# [8] = biological target: T3, FGFR3c ectodomain, mouse (Mus musculus (Mouse)) (UniProt Q61851); experiment: flow; conditions: 2'-F pyrimidines; 3'-inverted dT (not in strands); 5'-thiol; protein on protein G beads; DPBS / FACS buffer, 1 h, 37 C; apparent Kd
# T3 sequence: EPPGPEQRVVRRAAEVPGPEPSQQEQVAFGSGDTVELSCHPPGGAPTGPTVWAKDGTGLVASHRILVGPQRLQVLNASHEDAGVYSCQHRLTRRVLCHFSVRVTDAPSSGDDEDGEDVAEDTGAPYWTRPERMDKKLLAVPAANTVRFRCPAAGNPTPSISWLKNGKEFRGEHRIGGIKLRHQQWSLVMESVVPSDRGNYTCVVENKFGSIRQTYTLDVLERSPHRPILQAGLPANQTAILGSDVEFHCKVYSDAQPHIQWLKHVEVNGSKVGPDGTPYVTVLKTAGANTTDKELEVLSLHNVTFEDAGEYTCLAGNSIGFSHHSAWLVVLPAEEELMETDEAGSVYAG
# [9] = biological target: PD-L1 (human) (Homo sapiens (Human)) (UniProt Q9NZQ7); experiment: flow; conditions: MDA-MB-231 PD-L1 over-expressing cells, 4 C, 1 h
# [10] = biological target: T4, Epithelial cell adhesion molecule (EpCAM) (Homo sapiens (Human)) (UniProt P16422); experiment: flow; conditions: DPBS, 4.5 g/L glucose, 5 mM MgCl2, 10% FBS, 37 C; HepG2 cells overexpressing EpCAM
# T4 sequence: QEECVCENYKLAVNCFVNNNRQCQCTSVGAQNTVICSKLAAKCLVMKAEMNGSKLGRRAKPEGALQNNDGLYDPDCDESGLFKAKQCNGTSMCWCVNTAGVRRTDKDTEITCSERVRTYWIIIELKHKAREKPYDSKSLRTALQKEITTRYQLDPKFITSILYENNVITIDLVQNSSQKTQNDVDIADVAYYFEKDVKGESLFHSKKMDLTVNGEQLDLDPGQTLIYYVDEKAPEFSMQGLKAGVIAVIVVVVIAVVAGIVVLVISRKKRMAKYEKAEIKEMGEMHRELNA
# [11] = biological target: T5, C5a anaphylatoxin (human) (Homo sapiens (Human)) (UniProt P01031); experiment: SPR; conditions: all L-RNA (Spiegelmer); 5' 40 kDa branched PEG via aminohexyl linker
# T5 sequence: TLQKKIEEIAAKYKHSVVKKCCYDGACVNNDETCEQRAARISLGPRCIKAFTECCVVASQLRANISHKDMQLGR
# [12] = biological target: T6, C5a anaphylatoxin (mouse) (Mus musculus (Mouse)) (UniProt P06684); experiment: SPR; conditions: all L-RNA (Spiegelmer); 5' 40 kDa branched PEG via aminohexyl linker
# T6 sequence: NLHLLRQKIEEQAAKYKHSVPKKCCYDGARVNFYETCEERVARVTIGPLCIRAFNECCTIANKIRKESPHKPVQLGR
# [13] = biological target: T7, Aspartyl/asparaginyl beta-hydroxylase, human (Homo sapiens (Human)) (UniProt Q12797); experiment: flow; conditions: HeLa-ASPH cells; DPBS, 5 mM MgCl2, glucose, BSA, tRNA
# T7 sequence: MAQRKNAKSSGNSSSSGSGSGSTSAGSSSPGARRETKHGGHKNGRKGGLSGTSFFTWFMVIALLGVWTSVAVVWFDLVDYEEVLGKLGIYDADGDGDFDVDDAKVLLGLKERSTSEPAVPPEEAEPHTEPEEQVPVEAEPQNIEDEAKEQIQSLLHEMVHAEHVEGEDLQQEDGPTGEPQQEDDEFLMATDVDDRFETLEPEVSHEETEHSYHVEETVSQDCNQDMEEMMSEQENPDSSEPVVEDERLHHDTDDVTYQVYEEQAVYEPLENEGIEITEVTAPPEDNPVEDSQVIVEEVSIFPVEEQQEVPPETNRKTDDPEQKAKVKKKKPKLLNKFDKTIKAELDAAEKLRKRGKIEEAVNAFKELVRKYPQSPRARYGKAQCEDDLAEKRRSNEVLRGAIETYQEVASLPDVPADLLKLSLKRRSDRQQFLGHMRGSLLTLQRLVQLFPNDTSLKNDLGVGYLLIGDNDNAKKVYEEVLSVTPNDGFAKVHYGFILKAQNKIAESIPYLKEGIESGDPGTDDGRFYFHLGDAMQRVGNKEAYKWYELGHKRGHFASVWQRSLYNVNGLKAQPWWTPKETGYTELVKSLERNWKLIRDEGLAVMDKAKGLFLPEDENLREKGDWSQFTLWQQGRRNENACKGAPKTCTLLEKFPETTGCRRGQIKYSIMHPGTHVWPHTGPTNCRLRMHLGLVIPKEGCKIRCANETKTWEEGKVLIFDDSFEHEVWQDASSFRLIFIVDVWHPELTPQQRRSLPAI
# [14] = biological target: MMP14 (MT1-MMP) (Homo sapiens (Human)) (UniProt P50281); experiment: flow; conditions: 293T-MMP14 cells; PBS, 10% FCS, 0.02% NaN3, 37 C, 30 min
# [15] = biological target: T8, SIRT1, human (Homo sapiens (Human)) (UniProt Q96EB6); experiment: SPR; conditions: circular (ligated 40-mer, ESI Fig 4); 100 mM NaCl, 5 mM MgCl2, pH 7.4, 25 C
# T8 sequence: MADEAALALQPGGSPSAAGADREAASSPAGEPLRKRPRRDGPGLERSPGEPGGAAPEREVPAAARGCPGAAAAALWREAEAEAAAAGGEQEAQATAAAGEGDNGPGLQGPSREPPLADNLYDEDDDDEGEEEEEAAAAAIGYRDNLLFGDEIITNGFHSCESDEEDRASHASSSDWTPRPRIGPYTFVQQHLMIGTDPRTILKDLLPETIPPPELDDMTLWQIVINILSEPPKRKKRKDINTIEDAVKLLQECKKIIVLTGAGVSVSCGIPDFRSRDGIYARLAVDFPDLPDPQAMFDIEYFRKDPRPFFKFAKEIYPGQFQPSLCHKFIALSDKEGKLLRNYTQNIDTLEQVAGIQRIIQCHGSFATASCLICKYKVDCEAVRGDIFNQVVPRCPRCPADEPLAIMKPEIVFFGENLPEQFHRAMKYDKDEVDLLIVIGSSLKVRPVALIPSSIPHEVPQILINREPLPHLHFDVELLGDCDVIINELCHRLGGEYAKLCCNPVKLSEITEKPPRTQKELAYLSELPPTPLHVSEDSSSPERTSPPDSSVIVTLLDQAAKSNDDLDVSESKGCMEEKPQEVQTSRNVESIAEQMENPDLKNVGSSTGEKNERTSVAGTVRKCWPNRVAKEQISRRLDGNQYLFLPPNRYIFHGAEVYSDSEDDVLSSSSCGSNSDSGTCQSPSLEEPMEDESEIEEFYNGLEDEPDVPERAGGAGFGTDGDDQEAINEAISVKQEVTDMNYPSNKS
# [16] = biological target: alpha-thrombin (light + heavy chain) (Homo sapiens (Human)) (UniProt P00734+P00734); experiment: SPR; conditions: 2'-F pyrimidines; 10 mM HEPES-KOH pH 7.5, 100 mM KCl; protein amine-coupled on CM5, BSA reference
# [17] = biological target: PDGFR-alpha ectodomain (human) (Homo sapiens (Human)) (UniProt P16234); experiment: SPR; conditions: 2'-F pyrimidines; 30 mM Tris-HCl pH 7.5, 150 mM NaCl, 5 mM MgCl2; aptamer on SA chip
# [18] = biological target: T9, RNA-binding protein Hfq (YmaH) K2E (Bacillus subtilis (strain 168)) (UniProt O31796); experiment: EMSA
# T9 sequence: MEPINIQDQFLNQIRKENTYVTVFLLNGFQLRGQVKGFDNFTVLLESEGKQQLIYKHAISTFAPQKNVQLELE
# Sequence of PDGFR-alpha ectodomain (human) (Homo sapiens (Human)) (P16234 24-524): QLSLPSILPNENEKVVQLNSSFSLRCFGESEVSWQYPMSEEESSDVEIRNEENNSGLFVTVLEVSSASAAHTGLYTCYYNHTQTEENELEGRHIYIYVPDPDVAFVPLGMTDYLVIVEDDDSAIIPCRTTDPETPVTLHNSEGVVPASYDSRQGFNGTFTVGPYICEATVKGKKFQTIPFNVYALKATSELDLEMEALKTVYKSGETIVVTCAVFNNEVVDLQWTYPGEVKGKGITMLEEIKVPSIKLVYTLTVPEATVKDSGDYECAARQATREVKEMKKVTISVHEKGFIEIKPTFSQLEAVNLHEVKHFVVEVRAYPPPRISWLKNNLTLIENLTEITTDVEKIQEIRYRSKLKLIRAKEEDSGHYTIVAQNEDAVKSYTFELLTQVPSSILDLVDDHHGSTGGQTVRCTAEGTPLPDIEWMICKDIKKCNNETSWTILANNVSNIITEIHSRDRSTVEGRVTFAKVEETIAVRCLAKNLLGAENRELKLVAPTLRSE
# Sequence of Double homeobox protein 4 (human), full length (Homo sapiens (Human)) (Q9UBX2 whole entry): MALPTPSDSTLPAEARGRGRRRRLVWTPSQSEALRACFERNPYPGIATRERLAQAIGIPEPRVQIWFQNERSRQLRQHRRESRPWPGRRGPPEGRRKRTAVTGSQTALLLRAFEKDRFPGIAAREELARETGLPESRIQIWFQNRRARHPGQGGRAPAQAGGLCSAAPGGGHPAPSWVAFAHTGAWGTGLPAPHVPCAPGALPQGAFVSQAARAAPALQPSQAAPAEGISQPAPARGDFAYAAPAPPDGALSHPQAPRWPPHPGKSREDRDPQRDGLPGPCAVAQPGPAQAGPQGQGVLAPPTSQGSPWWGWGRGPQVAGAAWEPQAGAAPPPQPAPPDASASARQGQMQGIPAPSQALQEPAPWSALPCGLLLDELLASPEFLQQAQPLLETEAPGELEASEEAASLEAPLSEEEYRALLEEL
# Sequence of TGF-beta1 (mature) (Homo sapiens (Human)) (P01137 279-390): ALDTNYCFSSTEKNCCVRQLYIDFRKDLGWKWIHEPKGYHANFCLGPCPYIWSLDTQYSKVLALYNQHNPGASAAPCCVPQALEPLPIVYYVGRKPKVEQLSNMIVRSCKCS
# Sequence of PD-L1 (human) (Homo sapiens (Human)) (Q9NZQ7 19-290): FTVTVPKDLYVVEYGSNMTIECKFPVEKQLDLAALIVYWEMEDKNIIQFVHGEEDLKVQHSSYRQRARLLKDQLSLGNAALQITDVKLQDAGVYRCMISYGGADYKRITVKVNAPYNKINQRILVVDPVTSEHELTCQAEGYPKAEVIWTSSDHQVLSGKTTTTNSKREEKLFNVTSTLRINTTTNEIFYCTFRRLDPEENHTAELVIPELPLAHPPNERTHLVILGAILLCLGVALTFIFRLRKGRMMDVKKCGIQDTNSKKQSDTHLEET
# Sequence of Integrin alpha5 beta1 ectodomain (Homo sapiens (Human)) (P08648 42-995, chain 1 of 2): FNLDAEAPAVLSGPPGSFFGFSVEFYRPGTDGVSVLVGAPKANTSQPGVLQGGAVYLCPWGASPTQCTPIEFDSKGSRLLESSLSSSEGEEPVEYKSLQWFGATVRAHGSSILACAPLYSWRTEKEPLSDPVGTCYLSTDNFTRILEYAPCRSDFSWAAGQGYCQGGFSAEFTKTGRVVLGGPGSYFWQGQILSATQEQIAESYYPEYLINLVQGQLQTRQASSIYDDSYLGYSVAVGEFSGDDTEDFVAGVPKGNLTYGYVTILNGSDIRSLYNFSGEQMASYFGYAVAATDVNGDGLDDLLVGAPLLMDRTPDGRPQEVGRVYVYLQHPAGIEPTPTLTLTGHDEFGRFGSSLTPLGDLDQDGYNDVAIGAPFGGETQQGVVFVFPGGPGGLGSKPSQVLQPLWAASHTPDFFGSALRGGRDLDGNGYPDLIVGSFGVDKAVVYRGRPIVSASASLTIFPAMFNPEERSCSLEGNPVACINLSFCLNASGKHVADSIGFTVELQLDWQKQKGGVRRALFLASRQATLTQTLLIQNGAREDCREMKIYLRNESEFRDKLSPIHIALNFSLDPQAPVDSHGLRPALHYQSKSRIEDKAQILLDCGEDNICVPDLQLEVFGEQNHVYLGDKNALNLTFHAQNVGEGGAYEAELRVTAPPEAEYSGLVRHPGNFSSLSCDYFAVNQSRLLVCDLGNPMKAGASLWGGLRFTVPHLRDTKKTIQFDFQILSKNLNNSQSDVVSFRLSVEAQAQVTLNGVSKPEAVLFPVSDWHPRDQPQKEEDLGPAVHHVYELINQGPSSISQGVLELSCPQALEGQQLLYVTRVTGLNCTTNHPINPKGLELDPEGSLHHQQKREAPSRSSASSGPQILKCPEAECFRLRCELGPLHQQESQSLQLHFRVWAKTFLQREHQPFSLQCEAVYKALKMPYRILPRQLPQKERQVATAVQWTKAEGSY
# Sequence of Integrin alpha5 beta1 ectodomain (Homo sapiens (Human)) (P05556 21-728, chain 2 of 2): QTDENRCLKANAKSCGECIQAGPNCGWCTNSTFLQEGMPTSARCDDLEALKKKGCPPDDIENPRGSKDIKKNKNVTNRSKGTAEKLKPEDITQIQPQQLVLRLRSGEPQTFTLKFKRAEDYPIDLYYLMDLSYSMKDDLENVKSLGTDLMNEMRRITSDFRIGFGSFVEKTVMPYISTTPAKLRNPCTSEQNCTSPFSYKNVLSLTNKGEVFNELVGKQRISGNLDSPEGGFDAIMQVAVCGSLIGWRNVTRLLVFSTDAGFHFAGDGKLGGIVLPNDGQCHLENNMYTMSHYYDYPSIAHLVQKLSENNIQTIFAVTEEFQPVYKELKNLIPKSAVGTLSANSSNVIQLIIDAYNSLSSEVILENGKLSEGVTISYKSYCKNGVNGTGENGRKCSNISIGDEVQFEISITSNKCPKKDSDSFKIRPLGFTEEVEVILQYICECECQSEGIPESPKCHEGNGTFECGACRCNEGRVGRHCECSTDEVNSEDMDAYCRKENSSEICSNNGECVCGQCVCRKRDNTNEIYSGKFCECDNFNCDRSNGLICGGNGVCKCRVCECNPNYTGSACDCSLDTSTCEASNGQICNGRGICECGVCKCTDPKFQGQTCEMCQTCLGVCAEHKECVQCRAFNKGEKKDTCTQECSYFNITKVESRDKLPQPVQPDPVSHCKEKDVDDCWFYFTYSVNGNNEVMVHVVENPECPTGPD
# Sequence of CD63 large extracellular loop (Homo sapiens (Human)) (P08962 103-203): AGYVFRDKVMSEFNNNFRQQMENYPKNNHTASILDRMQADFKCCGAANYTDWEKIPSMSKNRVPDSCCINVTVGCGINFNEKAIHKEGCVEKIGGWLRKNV
# Sequence of Lactoferrin (bovine milk) (Bos taurus (Bovine)) (P24627 20-708): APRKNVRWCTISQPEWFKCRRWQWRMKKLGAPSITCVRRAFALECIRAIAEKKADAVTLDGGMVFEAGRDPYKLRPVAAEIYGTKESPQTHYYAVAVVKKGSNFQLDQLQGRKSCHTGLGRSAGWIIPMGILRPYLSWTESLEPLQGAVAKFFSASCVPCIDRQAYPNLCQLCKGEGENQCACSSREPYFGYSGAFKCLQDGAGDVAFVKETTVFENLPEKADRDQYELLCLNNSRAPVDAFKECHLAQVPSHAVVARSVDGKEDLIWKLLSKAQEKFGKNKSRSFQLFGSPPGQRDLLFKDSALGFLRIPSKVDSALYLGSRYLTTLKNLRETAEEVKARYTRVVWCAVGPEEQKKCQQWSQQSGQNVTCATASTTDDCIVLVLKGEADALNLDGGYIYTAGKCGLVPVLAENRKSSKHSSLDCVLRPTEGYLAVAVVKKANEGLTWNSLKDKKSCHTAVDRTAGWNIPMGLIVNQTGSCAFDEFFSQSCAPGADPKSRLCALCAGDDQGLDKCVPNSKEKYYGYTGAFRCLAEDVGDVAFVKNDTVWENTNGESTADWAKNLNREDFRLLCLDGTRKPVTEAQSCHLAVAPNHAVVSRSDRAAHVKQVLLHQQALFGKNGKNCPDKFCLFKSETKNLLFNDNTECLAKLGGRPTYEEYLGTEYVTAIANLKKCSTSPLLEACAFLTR
sequence,measurement,setting,value
GGUUACCAGCCUUCACUGCGGACGGACAGAGAGUGCAACCUGCCGUGCCGCACCACGGUCGGUCACAC [H02-2'F],Kd,[1],72 nM
GGGAAUGGAUCCACAUCUACGAAUUCCCAACGACUGCCGAGCGAGAUUACGCUUGAGCGCCCCACUGAGGAUGCCCACGGGCGAUUGGGGCACGGCUUCACUGCAGACUUGACGAAGCUU [NELFapt (full length)],Kd,[2],5.2 nM
"GCAGGACACCGTAACACGGGCTGATGCTCTCTTTATTTTACCTAAATAAAGTGTCCTGC [YFL-4 (Lac-A1), truncated 59-mer]",Kd,[3],0.953 nM
AGCTAACTTAATCAACCGCAGGTTGATTAACCCGTTAGC [DUX4_CTT_R7CCC],Kd,[4],20 nM
UGGUAAUUUGUCGUUUAUACGGGUCCUCGCAUCUUCCUA [TGF#2 (probable)],Kd,[5],10 nM
GCTGGACTCACCTCGACCAGAGCCATTGGGTTTCCTAGGAAATAGGGCCTTTACTATGAGCGAGCCTGGCG [LL4A],Kd,[6],84.6 nM
GCCGAUGGUUUUGUGGCCGUUUGAGGUUCCUACGGC [iR3],Kd,[7],48 nM
same,Kd,[8],36.6 nM
ACCGACCGTGCTGGACTCATCTCGCTTTTTTCACGGTCCACACTACTATGAGCGAGCCTGGCG [XQ-P3],Kd,[9],15.4 nM
AACAGAGGGACAAACGGGGGAAGATTTGACGTCGACGACA [EP166],Kd,[10],5480 nM
GCCUGAUGUGGUGGUGAAGGGUUGUUGGGUGUCGACGCACAGGC [NOX-D19],Kd,[11],1.39 nM
same,Kd,[12],0.051 nM
ATACCAGCTTATTCAATTCGGGACAAGACAACGAACGAACAGGAAGAGAACCGGAATGCAGACGTCAGGGAGATAGTAAGTGCAATCT [AP-Cell 1],Kd,[13],47.5 nM
AGGGCCCGACGTGACGGCACGTCGGATATCTCATGCGTGT [M17],Kd,[14],4.98 nM
CGAGTGGGTTACATCGAAACTGGATCTCAACAGCGGTAAC [AC3 (C3)],Kd,[15],0.27 nM
CCUUUGGUUCGGAUAAUUAUUAAGUAUUGUCUUCAUUCA [Tbn#3],Kd,[16],1.4 nM
GGGAGAGCGGAAGCGUGCUGGGCCUGCUCUUUAAUAAACCCACUUUCGAACAUCAGCGUAUGUCCAUAACCCAGAGGUGAUGGAUCCCCC [PDR3],Kd,[17],0.25 nM
GGGACACAAUGGACGUAGAGAGAGAUUAGAUCCUGUCCGCGGCUAUAACGGCCGACAUGAGAG [m49f],Kd,[18],10 nM
